Data reported in paper PMC9352680, “A comprehensive thermodynamic model for RNA binding by the Saccharomyces cerevisiae Pumilio protein PUF4”.
Residue numbers refer to the chain shown, from its start. Names and notes keep the numbering of the source.

T1: PUF4 RNA-binding domain (Saccharomyces cerevisiae, UniProt P25339 537-888)
T1 sequence: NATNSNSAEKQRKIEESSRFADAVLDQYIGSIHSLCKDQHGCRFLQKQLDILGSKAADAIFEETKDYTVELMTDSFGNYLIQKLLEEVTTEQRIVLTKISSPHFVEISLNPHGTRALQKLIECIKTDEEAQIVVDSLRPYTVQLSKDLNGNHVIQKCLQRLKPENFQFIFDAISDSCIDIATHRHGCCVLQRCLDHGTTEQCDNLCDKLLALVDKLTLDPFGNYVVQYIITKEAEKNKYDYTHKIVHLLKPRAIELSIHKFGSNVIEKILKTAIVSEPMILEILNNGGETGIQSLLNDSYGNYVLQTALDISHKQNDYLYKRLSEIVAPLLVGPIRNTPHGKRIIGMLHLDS

B1: Ib_S2_P5E.1_K5.1_C5.1_H5.1_[G2T]_[A4T]_A5.1_F5.1_T5.1 (ssRNA)
RNA: UUUGAUUAAUAUGAUAUCGUUCUUUCUUUUUUUAUUAUUCUUUCUCGAUAUCAUAUUAAUCUUU
B2: Ic_S2_P5E.1_K5.1_C5.1_H5.1_A5.1_[T5A]_[A7G]_F5.1_T5.1 (ssRNA)
RNA: B1 RNA with U29G, U31A, U32A, A34G
B3: Ib_S2_P5E.1_K5.1_C5.1_H5.1_[A4G]_A5.1_[A7T]_F5.1_T5.1 (ssRNA)
RNA: B1 RNA with U29G, U31G, A34U
B4: Ib_S2_P5E.1_K5.1_C5.1_H5.1_A5.1_[T6G]_[A7T]_F5.1_T5.1 (ssRNA)
RNA: B1 RNA with U29G, U31A, U33G, A34U
B5: Ib_S2_P5E.1_K5.1_C5.1_H5.1_[G2T]_A5.1_[T5C]_F5.1_T5.1 (ssRNA)
RNA: B1 RNA with U31A, U32C
B6: Ia_S2_P5E.1_K5.1_C5.1_H5.1_[T1A]_A5.1_F5.1_T5.1 (ssRNA)
RNA: B1 RNA with U28A, U29G, U31A
B7: Ib_S2_P5E.1_K5.1_C5.1_H5.1_[A4C]_A5.1_[T6A]_F5.1_T5.1 (ssRNA)
RNA: B1 RNA with U29G, U31C, U33A
B8: Ib_S2_P5E.1_K5.1_C5.1_H5.1_[T3C]_[A4C]_A5.1_F5.1_T5.1 (ssRNA)
RNA: B1 RNA with U29G, U30C, U31C
B9: Ib_S2_P5E.1_K5.1_C5.1_H5.1_[T3C]_[A4T]_A5.1_F5.1_T5.1 (ssRNA)
RNA: B1 RNA with U29G, U30C
B10: Ib_S2_P5E.1_K5.1_C5.1_H5.1_[T1G]_[G2T]_A5.1_F5.1_T5.1 (ssRNA)
RNA: B1 RNA with U28G, U31A
B11: Ib_S2_P5E.1_K5.1_C5.1_H5.1_[G2C]_A5.1_[T5A]_F5.1_T5.1 (ssRNA)
RNA: B1 RNA with U29C, U31A, U32A
B12: Ib_S2_P5E.1_K5.1_C5.1_H5.1_[T3C]_A5.1_[T5C]_F5.1_T5.1 (ssRNA)
RNA: B1 RNA with U29G, U30C, U31A, U32C
B13: Ib_S2_P5E.1_K5.1_C5.1_H5.1_[T1A]_[G2T]_A5.1_F5.1_T5.1 (ssRNA)
RNA: B1 RNA with U28A, U31A
B14: Ib_S2_P5E.1_K5.1_C5.1_H5.1_[A4T]_A5.1_[T5C]_F5.1_T5.1 (ssRNA)
RNA: B1 RNA with U29G, U32C
B15: Ia_S2_P5E.1_K5.1_C5.1_H5.1_[G2C]_A5.1_F5.1_T5.1 (ssRNA)
RNA: B1 RNA with U29C, U31A
B16: Ib_S2_P5E.1_K5.1_C5.1_H5.1_[T3G]_[A4C]_A5.1_F5.1_T5.1 (ssRNA)
RNA: B1 RNA with U29G, U30G, U31C
B17: Ib_S2_P5E.1_K5.1_C5.1_H5.1_[T1C]_[T3C]_A5.1_F5.1_T5.1 (ssRNA)
RNA: B1 RNA with U28C, U29G, U30C, U31A
B18: Ib_S2_P5E.1_K5.1_C5.1_H5.1_[G2A]_[A4C]_A5.1_F5.1_T5.1 (ssRNA)
RNA: B1 RNA with U29A, U31C
B19: Ib_S2_P5E.1_K5.1_C5.1_H5.1_A5.1_[T5C]_[A7T]_F5.1_T5.1 (ssRNA)
RNA: B1 RNA with U29G, U31A, U32C, A34U
B20: Ib_S2_P5E.1_K5.1_C5.1_H5.1_[A4C]_A5.1_[T5C]_F5.1_T5.1 (ssRNA)
RNA: B1 RNA with U29G, U31C, U32C
B21: Ib_S2_P5E.1_K5.1_C5.1_H5.1_[A4C]_A5.1_[T5G]_F5.1_T5.1 (ssRNA)
RNA: B1 RNA with U29G, U31C, U32G
B22: Ib_S2_P5E.1_K5.1_C5.1_H5.1_[A4C]_A5.1_[T5A]_F5.1_T5.1 (ssRNA)
RNA: B1 RNA with U29G, U31C, U32A
B23: Ib_S2_P5E.1_K5.1_C5.1_H5.1_[G2C]_[A4C]_A5.1_F5.1_T5.1 (ssRNA)
RNA: B1 RNA with U29C, U31C
B24: Ib_S2_P5E.1_K5.1_C5.1_H5.1_[G2A]_A5.1_[T6C]_F5.1_T5.1 (ssRNA)
RNA: B1 RNA with U29A, U31A, U33C
B25: Ib_S2_P5E.1_K5.1_C5.1_H5.1_[T3C]_A5.1_[A7T]_F5.1_T5.1 (ssRNA)
RNA: B1 RNA with U29G, U30C, U31A, A34U
B26: Ib_S2_P5E.1_K5.1_C5.1_H5.1_[A4C]_A5.1_[A7C]_F5.1_T5.1 (ssRNA)
RNA: B1 RNA with U29G, U31C, A34C
B27: Ib_S2_P5E.1_K5.1_C5.1_H5.1_[G2C]_A5.1_[T6A]_F5.1_T5.1 (ssRNA)
RNA: B1 RNA with U29C, U31A, U33A
B28: Ib_S2_P5E.1_K5.1_C5.1_H5.1_[T3G]_[A4T]_A5.1_F5.1_T5.1 (ssRNA)
RNA: B1 RNA with U29G, U30G
B29: Ib_S2_P5E.1_K5.1_C5.1_H5.1_A5.1_[T5C]_[A7C]_F5.1_T5.1 (ssRNA)
RNA: B1 RNA with U29G, U31A, U32C, A34C
B30: Ib_S2_P5E.1_K5.1_C5.1_H5.1_[G2T]_A5.1_[T6A]_F5.1_T5.1 (ssRNA)
RNA: B1 RNA with U31A, U33A

Biological target: T1, PUF4 RNA-binding domain
Assay: Mg; RNA-MaP; 20 mM Na-HEPES pH 7.4, 30 mM KOAc, 0.75 mM MgCl2, 0.1% Tween-20, 5% glycerol, 0.1 mg/mL BSA, 2 mM DTT; 25 C; 0.0125-409.6 nM protein
Conditions: tags: N-His6-TEV cleaved; C-SNAP kept, Cy3B-labelled; label: tethered on chip by stalled RNA polymerase

| Binder | Kd |
| --- | --- |
| B1 | > 2300 nM |
| B2 | 13.1 nM |
| B3 | 10.3 nM |
| B4 | 6.35 nM |
| B5 | > 2300 nM |
| B6 | > 2300 nM |
| B7 | 28.1 nM |
| B8 | 1540 nM |
| B9 | 930 nM |
| B10 | 39.1 nM |
| B11 | 870 nM |
| B12 | 276 nM |
| B13 | 1610 nM |
| B14 | 11 nM |
| B15 | 2160 nM |
| B16 | 1020 nM |
| B17 | > 2300 nM |
| B18 | 810 nM |
| B19 | 1.36 nM |
| B20 | 22.6 nM |
| B21 | 40 nM |
| B22 | 5.71 nM |
| B23 | > 2300 nM |
| B24 | 353 nM |
| B25 | 676 nM |
| B26 | 94.3 nM |
| B27 | > 2300 nM |
| B28 | 965 nM |
| B29 | 2.13 nM |
| B30 | 1970 nM |
